Results as given in patent US20030092157, “Compositions, screening systems and methods for modulating HDL cholesterol and triglyceride levels” (published 2003).

Tests used:
LXRα/RXRα heterodimer [1] = biological target: T1, LXRα/RXRα heterodimer (/ Mus musculus, UniProt Q13133;P28700 Q13133:1-447,P28700:1-467); assay: competition; competed efficiently for CYP7-LXRE probe; details: tags: pCDNA3-LXRα and pSG5-mRXRα, TNT coupled transcription/translation system (Promega)
T1 sequence 1: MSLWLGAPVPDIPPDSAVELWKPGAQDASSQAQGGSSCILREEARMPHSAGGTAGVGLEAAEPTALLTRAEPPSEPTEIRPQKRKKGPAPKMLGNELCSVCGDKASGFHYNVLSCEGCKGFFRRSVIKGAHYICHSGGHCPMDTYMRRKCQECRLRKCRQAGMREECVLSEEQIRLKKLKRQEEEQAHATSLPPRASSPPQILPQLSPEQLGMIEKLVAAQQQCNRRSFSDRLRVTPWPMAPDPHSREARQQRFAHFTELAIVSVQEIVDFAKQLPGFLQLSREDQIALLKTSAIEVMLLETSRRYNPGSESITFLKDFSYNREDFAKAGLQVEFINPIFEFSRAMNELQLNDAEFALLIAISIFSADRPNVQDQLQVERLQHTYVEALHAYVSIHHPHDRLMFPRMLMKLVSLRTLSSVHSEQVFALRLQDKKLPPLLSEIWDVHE
T1 sequence 2: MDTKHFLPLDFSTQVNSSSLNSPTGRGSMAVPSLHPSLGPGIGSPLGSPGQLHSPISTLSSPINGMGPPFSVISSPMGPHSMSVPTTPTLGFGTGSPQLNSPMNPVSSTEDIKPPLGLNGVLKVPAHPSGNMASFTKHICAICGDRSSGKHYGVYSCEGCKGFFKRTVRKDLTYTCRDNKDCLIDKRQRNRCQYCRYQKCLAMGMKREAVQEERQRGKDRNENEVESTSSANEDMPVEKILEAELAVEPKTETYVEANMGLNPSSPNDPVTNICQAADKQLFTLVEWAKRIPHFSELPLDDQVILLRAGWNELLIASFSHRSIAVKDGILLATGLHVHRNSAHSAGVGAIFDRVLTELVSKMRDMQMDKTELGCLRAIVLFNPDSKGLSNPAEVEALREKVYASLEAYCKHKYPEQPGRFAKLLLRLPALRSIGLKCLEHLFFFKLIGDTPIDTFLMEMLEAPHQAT
Method: (§1) For FIG. 2A, HepG2 (liver), HuH7 (hepatoma), CaCo₂ (intestinal) and RK13 (kidney) cell lines were cotransfected with empty pGI3 vector or pGI3 containing an 8 kb fragment upstream of exon 2 of ABC1 intron 1 (pGI3-8 kb). Cells were then incubated for 48 hour. Luciferase activity was determined and plotted as fold activation relative to empty pGI3-transfected cells. The results of gel mobility shift assays in which LXRα and RXR were incubated as indicated with the radiolabeled probe corresponding to CYP7-LXRE are shown in FIG. 2B.
(§2) To investigate whether these DR4 were indeed able to bind LXR-RXR heterodimers, gel retardation assays were performed (FIG. 2B). […] As a control, the unlabeled LXRE previously described in ABC1 exon 1 (+4-LXRE) (10,11) also competed efficiently for binding. The signal was then competed with increasing quantities of each unlabeled putative LXRE.

[2] = biological target: T2, LXRα/RXR heterodimer (expressed in Cos-1) (Homo sapiens? / Mus musculus?, UniProt Q13133;P28700 Q13133:1-447,P28700:1-467); assay: cell_activity; 3 copies, luciferase, 1 µM 22(R)-hydroxycholesterol; text's "2-fold and 6-fold, respectively"
T2 sequence 1: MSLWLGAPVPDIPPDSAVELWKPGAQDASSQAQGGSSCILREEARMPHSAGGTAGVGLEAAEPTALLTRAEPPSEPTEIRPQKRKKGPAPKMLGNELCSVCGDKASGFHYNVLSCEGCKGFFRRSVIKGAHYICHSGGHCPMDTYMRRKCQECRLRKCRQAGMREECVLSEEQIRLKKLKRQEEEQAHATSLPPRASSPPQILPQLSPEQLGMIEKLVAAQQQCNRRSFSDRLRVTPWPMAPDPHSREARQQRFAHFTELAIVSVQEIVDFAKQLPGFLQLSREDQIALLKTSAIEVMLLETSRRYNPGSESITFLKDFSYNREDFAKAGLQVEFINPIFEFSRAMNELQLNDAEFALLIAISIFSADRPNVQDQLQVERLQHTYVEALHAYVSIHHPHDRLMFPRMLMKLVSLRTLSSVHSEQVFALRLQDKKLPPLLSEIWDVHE
T2 sequence 2: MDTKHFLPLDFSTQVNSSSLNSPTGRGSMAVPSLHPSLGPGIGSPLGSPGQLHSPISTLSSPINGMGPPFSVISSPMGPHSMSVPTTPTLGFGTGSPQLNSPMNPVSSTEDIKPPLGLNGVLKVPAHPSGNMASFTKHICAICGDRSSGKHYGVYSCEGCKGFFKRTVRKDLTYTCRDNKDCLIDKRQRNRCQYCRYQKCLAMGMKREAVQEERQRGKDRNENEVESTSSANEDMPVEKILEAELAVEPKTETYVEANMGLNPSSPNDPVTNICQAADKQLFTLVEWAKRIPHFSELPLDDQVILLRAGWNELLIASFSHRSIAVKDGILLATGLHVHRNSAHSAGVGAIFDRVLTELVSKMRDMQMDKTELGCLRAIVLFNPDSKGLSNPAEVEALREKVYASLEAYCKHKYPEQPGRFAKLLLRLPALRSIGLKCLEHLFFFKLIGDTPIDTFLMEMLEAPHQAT
Method: (§3) FIG. 3 is a bar graph illustrating that the LXREs are functional for LXRα transactivation. Cos-1 cells were cotransfected with multiple copies of the putative LXREs in the reporter plasmid TKpGI3 and expression plasmids for LXRα and RXR. Cells were then treated for 48 h with 1 μM 22(R)-hydroxycholesterol. Luciferase activity was determined and plotted as fold activation relative to vehicle-treated cells.
(§4) Cells were transfected for 3 hours by lipofection using ExGen 500 (Euromedex) in OPTIMEM 1. Medium was then replaced by Dulbecco's Modified Eagle's Medium (DMEM) containing 0.2% fetal calf serum and cells were incubated for 48 hours. Cell extracts were prepared and assayed for luciferase activity as described(15). Twenty-four hours before transfection, HepG2 cells, HUH7 cells, CaCo2 cells and RK13 cells were plated in 24-well plates in DMEM supplemented with 10% fetal calf serum at 5×10⁴ cells/well. Transfection mixes contained 100 ng of tkpGI3 reporter vector or pGI3 containing an 8 kb fragment from ABC1 intron I (pGI3-8 kb) (FIG. 1). Cos-1 cells were plated in 24-well plates in DMEM supplemented with 10% fetal calf serum at 5×10⁴ cells/well. Transfection mixes contained 50 ng of reporter plasmid (tkpGI3) containing multiple copies of the putative LXREs and 25 ng of LXRα and RXR expression plasmids, in the presence of the internal control β-gal expression vector. […]

[3] = biological target: T2, LXRα/RXR heterodimer (expressed in …); assay: cell_activity; 3 copies, luciferase, 1 µM 22(R)-hydroxycholesterol
Method: as §3, §4

LXRα/RXRα heterodimer [4] = biological target: T1, LXRα/RXRα heterodimer; assay: competition; dose-dependent competition, 5-, 25-, 50-fold excess; details: tags: pCDNA3-LXRα and pSG5-mRXRα, TNT coupled transcription/translation system (Promega)
Method: as §1, §2

B1: +4-LXRE (ABC1 exon 1/promoter) (dsDNA)
DNA 1: AGGTTACTATCGGTCA
DNA 2: TGACCGATAGTAACCT
binding result (LXRα/RXRα heterodimer [1]): binds

B2: -7670 LXRE (ABC1 intron 1) (dsDNA)
DNA 1: AGGTTACTGAAGGCCA
DNA 2: TGGCCTTCAGTAACCT
activity [2]: 6 fold induction

B3: -4696 LXRE (ABC1 intron 1) (dsDNA)
DNA 1: GGATCACCTGAGGTCA
DNA 2: TGACCTCAGGTGATCC
activity [3]: 2 fold induction

B4: -7188 LXRE (ABC1 intron 1) (dsDNA)
DNA 1: AGATCACTTGAGGTCA
DNA 2: TGACCTCAAGTGATCT
binding result (LXRα/RXRα heterodimer [4]): binds
